Experimental data as given in paper PMC8041783, “A positive charge region of Salmonella FliI is required for ATPase formation and efficient flagellar protein export” (Communications Biology, 2021).

Key:
[1] = target: T1, GST-FliJ (Salmonella enterica, UniProt P0A1K1 1-147); experiment: pull-down; GST affinity chromatography: purified His-FliI or His-FliI-5A mixed with purified GST or GST fusions, dialysed overnight against PBS at 4 °C; Glutathione Sepharose 4B; wash 10 ml PBS; elution with 10 mM reduced glutathione; CBB and anti-FliI immunoblot; settings: both partners purified
T1 construct: FliJ of Salmonella enterica; source: S. enterica SJW1368, purified (Glutathione Sepharose 4B)
T1 sequence (P0A1K1 whole entry, the tested form may be a part): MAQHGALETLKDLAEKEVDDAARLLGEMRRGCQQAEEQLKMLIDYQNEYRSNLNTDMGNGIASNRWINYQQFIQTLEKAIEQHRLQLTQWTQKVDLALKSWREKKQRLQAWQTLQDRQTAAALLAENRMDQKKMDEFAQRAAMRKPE

[2] = target: the molecule itself; experiment: negative-stain electron microscopy; purified FliI 1 μM in 50 mM Tris-HCl pH 8.0, 113 mM NaCl, 0.8 mM EDTA, 1 mM DTT with 5 mM MgCl2, 5 mM ADP, 5 mM AlCl3, 15 mM NaF, 20 min at room temperature; uranyl acetate stain; reference-free 2D class averages (RELION); monomers to hexameric ring

Binder | binding result [1] | stoichiometry N [2]
His-FliI(R26A/R27A/R33A/R76A/R93A) (enzyme, FliI of Salmonella enterica, UniProt P26465, with R26A/R27A/R33A/R76A/R93A; also called FliI-5A; His-FliI-5A; source: S. enterica SJW1368, pTrc99A-based plasmid co-expressing FliH; in lysate (Ni pull-down) and purified (Ni-NTA, then SEC to remove FliH)) MTTRLTRWLTALDNFEAKMALLPAVAAYGRLTAATGLVLEATGLQLPLGATCIIERQDGPETKEVESEVVGFNGQALFLMPLEEVEGILPGAAVYARNGHGDGLQSGKQLPLGPALLGRVLDGGGKPLDGLPAPDTLETGALITPPFNPLQRTPIEHVLDTGVRAINALLTVGRGQRMGLFAGSGVGKSVLLGMMARYTRADVIVVGLIGERGREVKDFIENILGPDGRARSVVIAAPADVSPLLRMQGAAYATRIAEDFRDRGQHVLLIMDSLTRYAMAQREIALAIGEPPATKGYPPSVFAKLPALVERAGNGIHGGGSITAFYTVLTEGDDQQDPIADSARAILDGHIVLSRRLAEAGHYPAIDIEASISRAMTALITEQHYARVRLFKQLLSSFQRNRDLVSVGAYAKGSDPMLDKAITLWPQLEAFLQQGIFERADWEDSLQALDLIFPTV | binds | 6
His-FliI(R26A/R27A/R33A/R76A) (enzyme, FliI of Salmonella enterica, UniProt P26465, with R26A/R27A/R33A/R76A; also called FliI-4A; His-FliI-4A; source: S. enterica SJW1368, pTrc99A-based plasmid co-expressing FliH; in lysate (Ni pull-down) and purified (Ni-NTA, then SEC to remove FliH)) MTTRLTRWLTALDNFEAKMALLPAVAAYGRLTAATGLVLEATGLQLPLGATCIIERQDGPETKEVESEVVGFNGQALFLMPLEEVEGILPGARVYARNGHGDGLQSGKQLPLGPALLGRVLDGGGKPLDGLPAPDTLETGALITPPFNPLQRTPIEHVLDTGVRAINALLTVGRGQRMGLFAGSGVGKSVLLGMMARYTRADVIVVGLIGERGREVKDFIENILGPDGRARSVVIAAPADVSPLLRMQGAAYATRIAEDFRDRGQHVLLIMDSLTRYAMAQREIALAIGEPPATKGYPPSVFAKLPALVERAGNGIHGGGSITAFYTVLTEGDDQQDPIADSARAILDGHIVLSRRLAEAGHYPAIDIEASISRAMTALITEQHYARVRLFKQLLSSFQRNRDLVSVGAYAKGSDPMLDKAITLWPQLEAFLQQGIFERADWEDSLQALDLIFPTV |  | 6
His-FliI(R26A/R27A/R33A) (enzyme, FliI of Salmonella enterica, UniProt P26465, with R26A/R27A/R33A; also called FliI-3A; His-FliI-3A; source: E. coli BL21 (DE3) Star, pET19b-based plasmid, purified (Ni-NTA, Superdex 200 SEC)) MTTRLTRWLTALDNFEAKMALLPAVAAYGRLTAATGLVLEATGLQLPLGATCIIERQDGPETKEVESEVVGFNGQRLFLMPLEEVEGILPGARVYARNGHGDGLQSGKQLPLGPALLGRVLDGGGKPLDGLPAPDTLETGALITPPFNPLQRTPIEHVLDTGVRAINALLTVGRGQRMGLFAGSGVGKSVLLGMMARYTRADVIVVGLIGERGREVKDFIENILGPDGRARSVVIAAPADVSPLLRMQGAAYATRIAEDFRDRGQHVLLIMDSLTRYAMAQREIALAIGEPPATKGYPPSVFAKLPALVERAGNGIHGGGSITAFYTVLTEGDDQQDPIADSARAILDGHIVLSRRLAEAGHYPAIDIEASISRAMTALITEQHYARVRLFKQLLSSFQRNRDLVSVGAYAKGSDPMLDKAITLWPQLEAFLQQGIFERADWEDSLQALDLIFPTV |  | ~6
